The supplement of paper PMC10724198
± gives the standard deviation of the averaged measurements.

Each sequence was assayed on Saccharomyces cerevisiae (assay: protein stability index of tFT-peptide fusion in deletion strain of DAS1 (PSI (0-1 scale)); higher = more stable (slower turnover)). Details: not given.
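Throughout, for protein stability index of tFT-peptide fusion (C-terminal peptide): PSI is a weighted mean of sequencing reads over stability bins, variants kept only with over 10 reads, mCherry proximal and sfGFP distal, peptide attached via GGGS linker.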
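Throughout, for protein stability index of tFT-peptide fusion in deletion strain of DAS1: PSI is a weighted mean of each variant's read distribution over the sorted stability bins, computed only for variants having over 10 reads in total.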
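Throughout, for protein stability index of tFT-peptide fusion in deletion strain of DOA10: PSI per variant is the weighted mean of its sequencing read distribution over the sorted stability bins, counting only variants with over 10 reads summed across bins.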

| Sequence | protein stability index |
| --- | --- |
| ARWGVGLWRGAS | 0.685 |
| RPIQPLPVQFLN | 0.593 |
| RRWRVGLWRGAS | 0.684 |
| RVIQPLPVQFLN | 0.576 |
| RWIQPLPVQFLN | 0.686 |
| SSMRWTFRYWVN | 0.608 |
| TRWRVGLWRGAS | 0.602 |
| TTSCGYKFRTNN | 0.677 |
| VDGAVGGWRLVG | 0.685 |
| VRCAVGGWRLVG | 0.716 |
| VRGAVGGARLVG | 0.673 |
| VRGAVGGKRLVG | 0.677 |
| VRGAVGGWALVG | 0.667 |
| VRGAVGGWRLCG | 0.676 |
| VRGAVGGWRLMG | 0.66 |
| VRGAVGGWRLVGE | 0.66 |
| VRGAVGGWRLVN | 0.673 |
| VRGAVGGWRLVQ | 0.684 |
| VRGAVGGWRLWG | 0.717 |
| VRGAVGGWRYVG | 0.686 |
| VRGAVGHWRLVG | 0.678 |
| VRGAVIGWRLVG | 0.68 |
| VRGAWGGWRLVG | 0.692 |
| VRPAVGGWRLVG | 0.68 |
| WSLAASFWRVVG | 0.668 |
| YKHKKGQKQKIN | 0.607 |
| YRWRVGLWRGAS | 0.66 |

The sequences below were run on Saccharomyces cerevisiae (assay: protein stability index of tFT-peptide fusion (C-terminal peptide) (PSI (0-1 scale)); higher = more stable (slower turnover)). Details: genetic background: cdc34-1; temperature: 37 C.
Protocol: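 MPS profiling in S. cerevisiae of the tFT-X12 degron library: putative degron peptides plus stable controls, 12 aa, fused to the C-terminus of a sfGFP-mCherry timer. Cells are FACS-sorted into 8 mCherry/sfGFP bins and deep-sequenced. PSI runs from 0 (unstable) to 1 (stable). Backgrounds are wild type, das1Δ and doa10Δ at 30 °C, and wild type, das1Δ, cdc34-1 and cdc53-1 at 37 °C; 2-3 technical replicates each.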

| Sequence | protein stability index |
| --- | --- |
| ARWGVGLWRGAS | 0.664 ± 0.02 |

Same assay, conditions: genetic background: cdc53-1; temperature: 37 C

| Sequence | protein stability index |
| --- | --- |
| ARWGVGLWRGAS | 0.756 ± 0.0077 |

Same assay, conditions: genetic background: das1 deletion; temperature: 30 C

| Sequence | protein stability index |
| --- | --- |
| ARWGVGLWRGAS | 0.6508 ± 0.0062 |

Same assay, conditions: genetic background: das1 deletion; temperature: 37 C

| Sequence | protein stability index |
| --- | --- |
| ARWGVGLWRGAS | 0.76494 ± 7.7e-05 |

Same assay, conditions: genetic background: doa10 deletion; temperature: 30 C

| Sequence | protein stability index |
| --- | --- |
| ARWGVGLWRGAS | 0.282 ± 0.018 |

Same assay, conditions: genetic background: wild type; temperature: 30 C

| Sequence | protein stability index |
| --- | --- |
| ARWGVGLWRGAS | 0.299 ± 0.029 |

Same assay, conditions: genetic background: wild type; temperature: 37 C

| Sequence | protein stability index |
| --- | --- |
| ARWGVGLWRGAS | 0.618 ± 0.012 |

Each sequence was assayed on Saccharomyces cerevisiae (assay: protein stability index of tFT-peptide fusion in deletion strain of DOA10 (PSI (0-1 scale)); higher = more stable (slower turnover)). Details: not given.
Protocol: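 MPS profiling in S. cerevisiae of two library types built from selected 12-aa C-degron peptides (IN1, IN2, LN1, LN3, VN2, R1-R5, W1-W3, Atg1 and Rpa12 C-termini): saturation mutagenesis libraries and C-terminal +1 capping libraries (13 aa). Each peptide is fused to the C-terminus of a sfGFP-mCherry timer, after a GGGS linker. Cells are FACS-sorted into 8 mCherry/sfGFP bins and sequenced. PSI runs from 0 (unstable) to 1 (stable), measured once in wild type and in the das1Δ or doa10Δ background.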

| Sequence | protein stability index |
| --- | --- |
| AFTLPMCPLLLR | 0.653 |
| AICLPMCPLLLR | 0.632 |
| AILLPMCPLLLR | 0.612 |
| AITLPMCALLLR | 0.638 |
| AITLPMCPLLKR | 0.676 |
| AITLPMCPLLLI | 0.596 |
| AITLPMCPLLLRD | 0.65 |
| AITLPMCPLLLV | 0.417 |
| AITLPMCPLLVR | 0.231 |
| AITLPMCPLTLR | 0.672 |
| AITLPMCQLLLR | 0.663 |
| AITLPMEPLLLR | 0.67 |
| AITLPMVPLLLR | 0.622 |
| AITLPNCPLLLR | 0.682 |
| AITLPSCPLLLR | 0.669 |
| AITVPMCPLLLR | 0.656 |
| CKVSLPILLFFR | 0.621 |
| CLASLPILLFFR | 0.626 |
| CLHSLPILLFFR | 0.626 |
| CLVRLPILLFFR | 0.595 |
| CLVSAPILLFFR | 0.639 |
| CLVSCPILLFFR | 0.578 |
| CLVSGPILLFFR | 0.631 |
| CLVSIPILLFFR | 0.556 |
| CLVSLPILLFFRE | 0.582 |
| CLVSLPILLFFRN | 0.531 |

| Sequence | protein stability index |
| --- | --- |
| CLVSLPILLFMR | 0.56 |
| CLVSLPILLMFR | 0.581 |
| CLVSLPILLPFR | 0.67 |
| CLVSLPILLRFR | 0.647 |
| CLVSLPILMFFR | 0.591 |
| CLVSLPILTFFR | 0.643 |
| CLVSLPNLLFFR | 0.685 |
| CQVSLPILLFFR | 0.631 |
| GKYMCSVGCWFR | 0.674 |
| GLYICSVGCWFR | 0.539 |
| GLYLCSVGCWFR | 0.575 |
| GLYMCNVGCWFR | 0.676 |
| GLYMCPVGCWFR | 0.664 |
| GLYMCSFGCWFR | 0.665 |
| GLYMCSHGCWFR | 0.695 |
| GLYMCSVCCWFR | 0.548 |
| GLYMCSVDCWFR | 0.615 |
| GLYMCSVGCWFF | 0.532 |
| GLYMCSVGCWFK | 0.628 |
| GLYMCSVGCWFRF | 0.636 |
| GLYMCSVGCWFRN | 0.584 |
| GLYMCSVGCWFS | 0.445 |
| GLYMCSVGCWVR | 0.341 |
| GLYMCSVGGWFR | 0.674 |
| GLYMCSVGHWFR | 0.679 |
| GLYMCSVGSWFR | 0.69 |

| Sequence | protein stability index |
| --- | --- |
| GLYMCSVYCWFR | 0.374 |
| GLYMHSVGCWFR | 0.706 |
| GLYMLSVGCWFR | 0.464 |
| GSLRVLLPLYFR | 0.685 |
| HLYMCSVGCWFR | 0.63 |
| LLVSLPILLFFR | 0.561 |
| PLVSLPILLFFR | 0.661 |
| QLYMCSVGCWFR | 0.625 |
| RDTRLDAIYFRI | 0.644 |
| RFTRLDAIYFRI | 0.656 |
| RITRLDAIYFRI | 0.673 |
| RMLRVLLPLYFR | 0.656 |
| RNLRVLLPLYFR | 0.682 |
| RSLGVLLPLYFR | 0.691 |
| RSLRMLLPLYFR | 0.615 |
| RSLRVHLPLYFR | 0.67 |
| RSLRVILPLYFR | 0.675 |
| RSLRVLLKLYFR | 0.616 |
| RSLRVLLPLKFR | 0.67 |
| RSLRVLLPLRFR | 0.661 |
| RSLRVLLPLYAR | 0.474 |
| RSLRVLLPLYFD | 0.63 |
| RSLRVLLPLYFI | 0.528 |
| RSLRVLLPLYFK | 0.633 |
